Experimental data published in patent US20100092484A1.

Key:
[1] = molecular target: lymphatic vessel endothelial hyaluronan receptor 1 protein (LYVE-1) (R&D, Cat. No. 2089-Ly) (UniProt Q9Y5Y7); experiment: ELISA on plate-coated LYVE-1 (50 ng), anti-goat IgG-HRP detection
[2] = molecular target: human CD44-IgG1 fusion protein (extracellular domain of human CD44 fused to human IgG1) (human); experiment: ELISA: antibody pre-mixed with human CD44-Ig (0.6 µg/ml); inhibition of CD44-Ig binding to plate-coated hyaluronic acid (HA)
[3] = molecular target: human CD44 (on cells) (human) (UniProt P16070); experiment: cell-based or functional assay
[4] = molecular target: cynomolgus CD44 (on cells) (cynomolgus monkey); experiment: cell-based or functional assay
cynomolgus CD44 (on cells) (cynomolgus monkey), sequence (P16070 other isoform, or with tags, fused parts or gaps limits assumed): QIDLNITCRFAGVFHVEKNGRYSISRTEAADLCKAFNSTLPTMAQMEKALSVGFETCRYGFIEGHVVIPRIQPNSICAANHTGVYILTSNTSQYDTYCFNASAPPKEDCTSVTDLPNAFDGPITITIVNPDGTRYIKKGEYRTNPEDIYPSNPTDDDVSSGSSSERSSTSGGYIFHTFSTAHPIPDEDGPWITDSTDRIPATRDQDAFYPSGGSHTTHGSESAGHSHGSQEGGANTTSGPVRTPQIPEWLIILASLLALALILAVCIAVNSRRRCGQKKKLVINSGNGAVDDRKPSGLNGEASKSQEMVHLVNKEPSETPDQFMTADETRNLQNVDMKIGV

human CD44 (on cells) (human), sequence (P16070 other isoform, or with tags, fused parts or gaps limits assumed): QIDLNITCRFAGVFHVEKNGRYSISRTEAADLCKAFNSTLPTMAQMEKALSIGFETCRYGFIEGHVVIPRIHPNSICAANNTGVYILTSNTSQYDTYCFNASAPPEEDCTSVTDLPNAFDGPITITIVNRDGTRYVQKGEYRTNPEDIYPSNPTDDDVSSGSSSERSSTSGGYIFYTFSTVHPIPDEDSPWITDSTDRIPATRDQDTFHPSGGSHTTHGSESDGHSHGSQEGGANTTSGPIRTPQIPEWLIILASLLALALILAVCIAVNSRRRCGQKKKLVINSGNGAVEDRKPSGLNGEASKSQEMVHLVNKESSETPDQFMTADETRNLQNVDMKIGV
human CD44-IgG1 fusion protein (extracellular domain of human CD44 fused to human IgG1) (human), sequence (chain, as listed by the source limits assumed): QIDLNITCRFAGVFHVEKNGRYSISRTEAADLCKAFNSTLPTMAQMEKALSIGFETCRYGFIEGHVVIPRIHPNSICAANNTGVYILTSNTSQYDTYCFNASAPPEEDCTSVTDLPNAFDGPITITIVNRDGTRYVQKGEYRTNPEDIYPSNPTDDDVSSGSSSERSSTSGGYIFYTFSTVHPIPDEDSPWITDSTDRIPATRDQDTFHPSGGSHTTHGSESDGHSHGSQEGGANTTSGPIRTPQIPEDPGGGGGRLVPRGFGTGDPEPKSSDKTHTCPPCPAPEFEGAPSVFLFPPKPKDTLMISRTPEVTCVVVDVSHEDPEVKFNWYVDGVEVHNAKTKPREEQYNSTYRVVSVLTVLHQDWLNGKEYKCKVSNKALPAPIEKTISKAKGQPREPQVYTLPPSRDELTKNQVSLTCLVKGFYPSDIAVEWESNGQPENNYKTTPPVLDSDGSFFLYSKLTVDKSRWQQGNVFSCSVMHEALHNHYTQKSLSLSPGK
lymphatic vessel endothelial hyaluronan receptor 1 protein (LYVE-1) (R&D, Cat. No. 2089-Ly), sequence (Q9Y5Y7 24-232 limits assumed): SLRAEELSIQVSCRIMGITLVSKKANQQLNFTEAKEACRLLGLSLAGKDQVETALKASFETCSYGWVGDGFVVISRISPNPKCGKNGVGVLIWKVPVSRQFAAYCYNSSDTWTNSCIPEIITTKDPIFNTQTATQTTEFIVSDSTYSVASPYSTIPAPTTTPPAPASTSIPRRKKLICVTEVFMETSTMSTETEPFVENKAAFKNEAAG

EC50 [1] [µg/mL]	IC50 [2] [µg/mL]	IC50 of IL-1β release from purified human PBMC stimulated by HA [3] [µg/mL]	IC50 of reduction of CD44 surface expression on human peripheral CD3+ T cells (FACS) [3] [µg/mL]	IC50 of reduction of CD44 surface expression on cynomolgus peripheral CD3+ T cells (FACS) [4] [µg/mL]	Substance
0.1	–	–	–	–	anti-LYVE-1 antibody (R&D, Cat. No. AF 2089)
–	0.32	1.46	–	–	anti-CD44 antibody 515 (BD Bioscience, Cat. No. 550990)
–	1.85	1.62	1.5	9.9	anti-CD44 antibody IM7 (BD Bioscience, Cat. No. 553134)
